According to the supplement of paper PMC10567573:
± gives the standard deviation.

Assay: protein stability index of a GFP-peptide fusion (GPS, HEK-293T) (PSI 1-6); higher = more stable
Details: c terminus: a fixed tail appended
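Note: 24-mer peptide tiles fused after GFP, lentivirally expressed, FACS-sorted into six equal bins by GFP/DsRed ratio, decoded by Illumina sequencing, PSI is the read-weighted mean bin number.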

Row | Sequence | protein stability index (treatment: DMSO) | protein stability index (treatment: MLN4924 1 uM, 8 h)
1 | LDGAGLMGFVPHNGSLYGQASSER [ADAMTSL2] | 4.32 ± 0.67 | 3.58 ± 0.95
2 | HIKLHSGEKPFKCHLCNYACRRRD [IKZF1] | 2.55 ± 0.23 | 2.93 ± 0.61
3 | ACGIVSGKYDSGIPPYSRASLKGY [KCNAB2] | 2.35 ± 0.21 | 2.2 ± 0.12
4 | SNFETYPENDWDTAAPVPQKDLEI [PRKX] | 5.03 ± 0.12 | 5.15 ± 0.2
5 | AAAALFGGKKDKARYIDTHNRVSK [PLK2] | 3.37 ± 0.22 | 3.14 ± 0.39
6 | GPGAHILRRKSPASGQGPMCNVKA [ADAMTS4] | 4.05 ± 0.34 | 3.76 ± 0.36
7 | LDLFAMKPPETSVPVVTPTASTAP [SNAP91] | 4.25 ± 0.28 | 4.48 ± 0.22
8 | VDSEQLRRDCDALMAGCIQEARER [CDKN1A] | 4.82 ± 0.15 | 4.7 ± 0.28
9 | DEPYEKVVDRIQSSGKNVTLLVCG [PDZK1] | – | 3.5 ± 0.36
10 | FAAPSPATTASPAKVDSSGVIDLF [SNAP91] | 2.93 ± 0.38 | 3.25 ± 0.52
11 | RSHSDSLDHDIFQLIDPDENKENE [CDC25A] | 5.14 ± 0.44 | 5.48 ± 0.2
12 | AGGDATENFEDVGHSTDAREMSKT [CYB5A] | 5.44 ± 0.28 | 5.3 ± 0.15
13 | KQLISQTKKKQWCYNCEEEAMYHC [ZMYND11] | 3.1 ± 0.17 | 3.22 ± 0.34
14 | TFNPHKRISAFRALQHSYLHKDEG [CDK4] | 2.87 ± 0.14 | 3.12 ± 0.09
15 | RADFVLAANSYDLAIKAITSSAKV [FKBP8] | 2.72 ± 0.18 | 2.84 ± 0.3
16 | KNNDLVVAVNGESVETLDHDSVVE [PDZK1] | 5.37 ± 0.27 | 5.34 ± 0.14
17 | QLNRRGEFIQEIRRQLEACQRERA [OAS1] | 4.09 ± 0.19 | 3.79 ± 0.075
18 | NFPQCVLEISDQEVLEWYTAKDFI [EFHC1] | 2.51 ± 0.33 | 2.6 ± 0.45
19 | EVLIGAGYSTPADIWSTACMAFEL [SRPK2] | 3.14 ± 1.2 | 2.61 ± 0.88
20 | LGFGSAKEAVTGSRLGQGIGPIHL [LOXL2] | 2.7 ± 0.26 | 2.64 ± 0.073
21 | AINNLVLQGCSSIGLRLVLEYLYT [KLHL14] | 3.15 ± 0.55 | 3.04 ± 0.31
22 | GDAFGSSASEPQPASQAASSSSAS [SNAP91] | 5.48 ± 0.16 | 5.32 ± 0.31
23 | SPLHAAAEAGHVDICHMLVQFCRL [EHMT1] | 2.25 ± 0.069 | 2.5 ± 0.37

Row | Sequence | protein stability index (treatment: DMSO) | protein stability index (treatment: MLN4924 1 uM, 8 h)
24 | SKLASMSNDFKSVLEVRTENLKQQ [STX5] | 4.04 ± 0.28 | 4.21 ± 0.32
25 | RTSSGTSREKTACAINKVGVSFST [FAM98B] | 3.29 ± 0.29 | 3.87 ± 0.46
26 | SFFVPRPTPSTPRPTPQDWLHRRA [ADAMTS4] | 3.4 ± 0.21 | 3.4 ± 0.084
27 | PSGFLQISDALIRRVHLTEDQWGK [TRIM9] | 2.84 ± 0.25 | 2.59 ± 0.24
28 | ERWLKELRDHADSNIVIMLVGNKS [RAB11A] | 2.32 ± 0.29 | 2.26 ± 0.34
29 | PEGSLSQTMAGSSPNTPQPVPEQS [FAM104A] | 5.47 ± 0.14 | 5.45 ± 0.12
30 | SILFGFWTSFICDTYIVLAWISKI [SMIM2] | 3.15 ± 0.34 | 3.31 ± 0.25
31 | ALLEGEKALWEDKTSLWEEENALW [CCDC70] | 3.41 ± 0.27 | 3.73 ± 0.33
32 | DHMREAGDVCYADVYRDGTGVVEF [SRSF1] | 3.15 ± 0.28 | 3.18 ± 0.23
33 | VWKYFGFDTNAEGCILQWKKIYCR [ZBED1] | 2.37 ± 0.56 | 2.2 ± 0.41
34 | VASMVLGECRQMSSSSQIGNDSFQ [CLCN6] | 2.87 ± 0.32 | 2.67 ± 0.27
35 | TIFSASNYYEVGSNRGAYVKLGPA [PPEF2] | 2.39 ± 0.5 | 2.66 ± 0.3
36 | GSWGSFQLPGLLNFGEFKCSDSDK [CLCN6] | 3.99 ± 0.29 | 4.17 ± 0.57
37 | VAKRKSSMPQKFLGDKGLSDTPYD [IKZF1] | 4.22 ± 0.1 | 4.38 ± 0.16
38 | EDQYEENSHLTSVPHWINSNTLGF [ETS2] | 3.2 ± 0.34 | 3.13 ± 0.3
39 | VPGEFKQDVTVVGSAGRLLAVGTD [GFOD1] | 4.1 ± 0.29 | 3.69 ± 0.17
40 | ETFIVPDSFLVALDMDDGTLSFIV [SPSB1] | 2.66 ± 0.33 | 2.58 ± 0.54
41 | LMDYIGINLATMNSCINPIALYFV [EDNRA] | – | 3.08 ± 0.24
42 | EETTSQDWGTPRELTFSYIAFDGV [RTN2] | 2.65 ± 0.15 | 2.8 ± 0.61
43 | QHAVQELTKAATSGVGIDGEVLSY [RHOBTB1] | 4.5 ± 0.25 | 4.57 ± 0.14
44 | ENITTVSVIKDHHTRSITSCCFDP [WDR88] | 3.55 ± 0.28 | 3.78 ± 0.16
45 | VKHQCCPGCGYFCTAGNFMECQPE [EHMT1] | 3.31 ± 0.19 | 3.31 ± 0.5
